From the DeepSol protein solubility set

Assay: soluble on expression in E. coli; label from the status in PepcDB or PDB records

Row | Sequence | soluble on expression in E. coli
1 | MSLRLKTILLTTMATGSFLCEPVAAMCIEPPATPDMGWFLKKKKKSNPQDSIKVKNEYEKLTGSDSVVRRGMFNVYQKKNDYYFEIPSTLLERDMLVVNKLQRVPAELNEAGVNRGTNYENQMIRFELDKSANKLLIRQSRPLPISPSEDAISQSVKDNYISPLIAGFKVEAYNNDSTSILIKVNDIYDGTETSINNVFTNINLGTSAIKNLSRILSIKSFDNNVVATSELTTRVTEGTTTIYVTVEVSSSILLLPEVPMTGRLDNPRVGYFTNPLTNFSDGQQRVNKKQFITRWRLEPRPEDRAAYLRGELVEPRKPIVFYIENSTPYRWRKYIKQGIEDWQVAFERAGFKNAIIAKDITEDMEVDMDDVNYSVLTYAASTKANAMGPSILDPRSGEILEADIMWWHNVLSMLQEWITVQTGVVRPEARGVALPDSLMGDAMRFVACHEVGHSLGLRHNMMGSWAFPTDSLRSKTFTDRMNSTSSSIMDYARFNYVAQPGDGIKALSPHIGPYDMFAIEYGYRWYGKQTPEEEKELLQDFLAKHTDRLYKYSEAQDEGHHHHHH | soluble
2 | MEILEEKPKEGKVKIKVETLDDLWHLYHIITPGDVVYAKTLRKQSQRSDSLRPEKVEVIPVFLGVKVEKINFHKFANQLRVTGPIIYASREDVPLGKYHTIAVEPGTIITLQKERWKPYYIERLKEAVEASKRAKVMIVTIEDGEAEMAIVREYGLDFIATIRHNLGGKRYNIKREDEERKFFHDVAKTMKDVMSRENIQRAIVAGPGFYKEDFYKFLKENYPDLASKIVLDDTSMGGRVGIYEVIKRGTVDKVYSESRIANEIKLVEKVIERIAKDEPVAYGMKEVEEAVNYGAVEILLVLDELLKGDNREKVEELMELARSLRSKVVVVSSEHEGGEKLKALGGIAGILRFKIK | soluble
3 | MAHHHHHHMTTLTHSRPRPLHLPLSPPHTRKNDGAAPAPAHTHPSHFLSVAITVTHTDFVTGTIMKSFFSNITSKLKTRRKPLAPCDCSDFIEAAPAQPSLTHLRGVVAARHFHGAPPPASDVENARRDFVVRSTVFDLQHRCGAGGRCTCAGAPACRFPQCFTMRPVTKGAEVLAERQVYEVEDAPTPEIRALVALAAEEKLEEVVKGIQHTVDAHLKAAARGRGLEARFIIDGSDGHEFTPATPKTGTGSIHAGANPLREDEDLREEITSLYLWRAALLVNLRRDEQAVSSLLNLAFAVEQKDRTRLYGAAAAWAVLNDMEIIYYRSLVKSCKPFDQAVHFATERPLLLARVFEATRGDDYHTDYCTHVVFSKEVTATVTRAQTAQMHGDFTEDPMRSLCLPLTMPYYRFRVDEEFWKRFYALLCMPPVPPPTQEEAKAQAIDPAAELGLTPNYILDAVGRSMMLHHLVTFADVRDKEIDTGVVVDRVKEMKLLDLQPHPSDYTPVLTTSEMHVAVTRMKELLVVVRSFEAKEQERLSGAAAAQRLQRAQSGNDAANPSAAPPAPSPIEK | not soluble
4 | MKQTFITLGEGLTDLFEFMTMIEYNHQRIDKIIYFHSPQAENKKSSVAIIMNPTTGNHFQAFYIMINAIKYPYPDSNKKFQMINDCAEKFDIPILGIDVQPPQAFHDLSLYYNYLISVLRLQKWIPELQLEHHHHHH | not soluble
5 | MGSDKIHHHHHHMHPKSPLTMQQSSVFIDSEVLLDDRKFAEAMLLKKDKAGLSRADMVFVLRNLLRLKYYPVAVKFFYDEAEVEKFKAEHEYLVACNPFTFCHFCAESRQKGDVLFGERRTLGCSNARYLFGWKDYDENEIKSHMKYVKDREQAERFVKTKPRLPEGLLAFATAPLHKAKFEPDLVFIICDVLQSYHLYNDYAAAMDVHPIRPNFMMNSAACGGAVWSYVENTINIVPMCSGSYTAGKTEQGEINVFIPWAHFEKLVVRLLERTASQGGASFPRTGETYPGFDICKLCNFLLFRKPKEDE | not soluble
6 | MSLTVKMGFIGFGKSANRYHLPYVMIRETLEVKTIFDLHVNEKAAAPFKEKGVNFTADLNELLTDPEIELITICTPAHTHYDLAKQAILAGKSVIVEKPFCDTLEHAEELFALGQEKGVVVMPYQNRRFDGDYLAMKQVVEQGFLGEINEVETHIDYYRPGSITEQGPKENGSFYGLGIHLMDRMIALFGRPDQVTYDIRNNEVSEAVDNYFDVDLHYGSKLKVKVKTNHSVASPYPRFIVHGSNGSFIKYGEDQQENDLKAGIMPDAPGFGEDSPMYYGEVTYRNGNGDWIKKQIKTPVGDYGRYYDAVYETLKNGAPQLVTKEQALTNIEILEAGFLNPSPSVYHLKENEGHHHHHH | soluble
7 | MGSDKIHHHHHHMTENSRKTATELFEFLDGLGISHTTKQHEPVFTVAESQSLRDLIPGGHTKNLFVKDKKDQYFVLTVEENAVVDLKSVHKTIGAASRVSFGRPEKMLEYLGVVPGSVTVFGAINDTARQVTFVLDSDLLENELVNGHPLSNDQTTTIASKDLIRFLEATGHAPLVLKVSE | soluble
8 | GFKDYGHDYHPAPKTENIKGLGDLKPGIPKTPKQNGGGKRKRWTGDKGRKIYEWDSQHGELEGYRASDGQHLGSFDPKTGNQLKGPDPKRNIKKYL | soluble
9 | MKKVRDPLEVTVVGQNIIVADDNYKWLQILPEKKRYSITVMFDNKGNPLEYYFDINIKNITQKGNARTVDLCLDVLALPSGEYELVDEDDLMFALESEQIT | not soluble
10 | MRAHTLSRQLREGNLFAEQCPSREVLKHVTSRWGVLILVALRDGTHRFSDLRRKMGGVSEKMLAQSLQALEQDGFLNRVSYPVVPPHVEYSLTPLGEQVSDKVAALADWIELNLPQVLAQRERLSDGG | soluble
11 | MSLAVEKITMPKLGESVTEGTISSWLVKPGDTVEKYDAIAEVLTDKVTAEIPSSFSGTIKEILAEEDETLEVGEVICTIETADAGSSEPVAEVEETETKAPEKQETKQVKLADAPASGRFSPAVLRIAGENNIDLSTVEGTGKGGRITRKDLLQVIENGPVAKREEMKSAPQEKAAMPTPPVRSAAGDKEIPINGVRKAIAKHMSVSKQEIPHAWMMVEVDATGLVRYRNAVKDSFKKEEGYSLTYFAFFIKAVAQALKEFPQLNSTWAGDKIIEHANINISIAIAAGDLLYVPVIKNADEKSIKGIAREISELAGKARNGKLSQADMEGGTFTVNSTGSFGSVQSMGIINHPQAAILQVESIVKRPVIIDDMIAVRDMVNLCLSIDHRILDGLLAGKFLQAIKANVEKISKENTALYEGHHHHHH | soluble
12 | MGSDKIHHHHHHMNKLINRISPETSENRILHAGFSIILMSEEITQTLSGLSSDMIIFILSGSITIYSTKEEKKTIGEQYMIFLRSFENYTYDITLGSKIIIFFFDSLTMNELPYYQHPYGILPQPISKWIELKIVEPLYGFLELVGQYLENNFLNYPLYELKRTELFYLLKKLYRKEELDYFFYLSSTHSAEFERLIAENYIKAKTVTDLAQMIGYGVNSFRMKFKKVFGIPAYEWLMQEKSKRLLVAIANSEDDFKNIIDEFDFSSHSHFYKFCKARFGYSPTELRKKLKSL | not soluble
13 | MTWKPNVTVAAVIEQDDKYLLVEEIPRGTAIKLNQPAGHLEPGESIIQACSREVLEETGHSFLPEVLTGIYHWTCASNGTTYLRFTFSGQVVSFDPDRKLDTGIVRAAWFSIDEIRAKQAMHRTPLVMQCIEDYHAGKRYPLDILQYYD | soluble
14 | MVLLLRYRSLTINLTPLIPKSQKFHTLQSFRNPNFISIPKISASTNNPTTTTNRSISDATKFAKSVLFIPPGVEIEELTDDMVLPGSNIVIGPFAGHSQIKEVEFVKSSARARDCPKDDRPEIAILGRSNVGKSSLINCLVRKKEVALTSKKPGKTQLINHFLVNKSWYIVDLPGYGFAKVSDAAKTDWSAFTKGYFLNRDSLVCVLLLIDASVPPQKIDLDCANWLGRNNVPMTFVFTKCDKMKATKGKRPDENIKAFQQIIRENFKVHPPWILTSSVSGLGRDELLLHMSQLRNYWDQ | not soluble
15 | MGSDKIHHHHHHMQSFDVVIAGGGMVGLALACGLQGSGLRIAVLEKQAAEPQTLGKGHALRVSAINAASECLLRHIGVWENLVAQRVSPYNDMQVWDKDSFGKISFSGEEFGFSHLGHIIENPVIQQVLWQRASQLSDITLLSPTSLKQVAWGENEAFITLQDDSMLTARLVVGADGAHSWLRQHADIPLTFWDYGHHALVANIRTEHPHQSVARQAFHGDGILAFLPLDDPHLCSIVWSLSPEQALVMQSLPVEEFNRQVAMAFDMRLGLCELESERQTFPLMGRYARSFAAHRLVLVGDAAHTIHPLAGQGVNLGFMDVAELIAELKRLQTQGKDIGQHLYLRRYERRRKHSAAVMLASMQGFRELFDGDNPAKKLLRDVGLVLADKLPGIKPTLVRQAMGLHDLPDWLSAGK | not soluble
